Measured values reported in publication PMC3199254.

Substrate: O=P(O)(O)O
Experiment: cells, lysate or membranes
Settings: intact delta-Pst1 cells grown 24 h in Pi-limiting BG-11; room temperature; transport Km

B1: Pst2 (Synechocystis sp. PCC 6803 substr. Kazusa) (protein)
chain: GTLNGAGASFPAPLYQRYFAEYKKATGNTVNYNSVGSGAGIRQFIGETVDFGATDAVPTSAQRQQMKRGVVMVPTAGGAVAVVYNLPGKKVQLSRIALGKIFTGELKTWNQVDSKLPNTPIRVVVRADGSGTTDIFTSHLSAISSTFRSKIGASQDPNWGFQVLKGPKNDGVAATVKQTPGAIGYVQDTFARRNEGPNLQTAKVQNKAGQYVEPSLAEANKAISGAKFDANFVAEISDPASGYPIVGLTWLLVYQNNKNANVAKDVKALVRWILTTGQNHNTQLEYTKIPPAVAQRVIAAVNKIK
- Km: 0.13 µM
